Here are results for three substances from US20120329854.

Some targets named below: GST-H3 1-15 (UniProt P68431); GST-H3 1-135 T6A (UniProt P68431); GST H3 1-15 T6A (UniProt P68431); GST-H3 16-30 (UniProt P68431); GST-H3 29-44 (UniProt P68431).
Series [1] has as its target H3K4me2 peptide (H3 tail residues 1-20) (UniProt P68431).
Series [2] addresses H3K4me1T6ph peptide (H3 tail residues 1-20) (UniProt P68431).
In series [3] the target is H3K4me1 peptide (H3 tail residues 1-20) (UniProt P68431).
In series [4] the target is H3K4me2T6ph peptide (H3 tail residues 1-20) (UniProt P68431).
Series [5] addresses GST-H3 1-135 (full-length histone H3) (UniProt P68431).
Series [6] concerns the target histone H3 in untreated nucleosomes purified from HeLa cells (UniProt P68431).

In the case of “bacterially expressed and purified His-LSD1”, the “demethylation assay, mass spectrometry” value is given as “The robust demethylation of H3K4me2 observed in the presence of LSD1” in [1], “demethylation of H3K4me1 by LSD1 is completely abrogated in the presence of phosphorylated T6” in series [2], “demethylation of H3K4me1 by LSD1” in series [3] and “is completely blocked when the peptides are phosphorylated at T6” in [4].
Consider “purified recombinant active PKCβI (ProQinase)”, for which the “phosphorylation in the presence of [γ-32P]ATP (autoradiography)” value in the series with GST-H3 1-15 was “only full-length histone H3 (H3 1-135) and a H3 fragment spanning amino acid residues 1 to 15 (H3 1-15), but not H3 16-30 or H3 29-44, are phosphorylated by PKCβI”; in series [5], “only full-length histone H3 (H3 1-135) and a H3 fragment spanning amino acid residues 1 to 15 (H3 1-15), but not H3 16-30 or H3 29-44, are phosphorylated by PKCβI”; with GST-H3 1-135 T6A, “mutation of threonine 6 to alanine in either H3 1-15 (H3 1-15 T6A) or in full length H3 (H3 1-135 T6A) abolishes phosphorylation”; with GST H3 1-15 T6A, “mutation of threonine 6 to alanine in either H3 1-15 (H3 1-15 T6A) or in full length H3 (H3 1-135 T6A) abolishes phosphorylation”; with GST-H3 16-30, “but not H3 16-30 or H3 29-44, are phosphorylated by PKCβI”; with GST-H3 29-44, “but not H3 16-30 or H3 29-44, are phosphorylated by PKCβI”. For the same substance, the “phosphorylation of nucleosomes at H3T6 (in vitro kinase assay, Western blot with α-H3T6ph)” value in series [6] is “only PKCα, 131 and 132 phosphorylate nucleosomes at H3T6”.
In the case of “purified recombinant active PKCδ (ProQinase)”, in series [6], the “phosphorylation of nucleosomes at H3T6 (in vitro kinase assay, Western blot with α-H3T6ph)” value was “only PKCα, 131 and 132 phosphorylate nucleosomes at H3T6 (PKCδ tested, no phosphorylation)”.
